The record followed here is patent publication US20140134169A1, “Methods of Treating Ovarian Cancer with Dll4 Antagonists” (Regeneron Pharmaceuticals, Inc., priority 2012, published 2014).

One assay has as its system human HCT116 tumor cells. The assay can be described thus: Growth of human HCT116 tumors in humanized Dll4 SCID mice (irinotecan study). The note with it: REGN421 2 mg/kg sc (6 mg/kg total). In kind it is in vivo. As for the experimental part: Each mouse was implanted subcutaneously (sc) with 5×10^6 human HCT116 tumor cells. […] The mice were then treated with hFc, REGN421, irinotecan or combination of REGN421 and irinotecan. A total of 30 mice were divided into 6 groups (n=5 per cohort). The first group was treated sc with hFc at 2 mg/kg; the second group was treated sc with REGN421 at 2 mg/kg; the third and fourth groups were treated ip with irinotecan at 7.5 and 25 mg/kg, respectively; the fifth group was treated sc with REGN421 at 2 mg/kg and ip with irinotecan at 7.5 mg/kg; and the sixth group was treated sc with REGN421 at 2 mg/kg and ip with irinotecan at 25 mg/kg. REGN421 was administered every 3-4 days starting on day 15 and mice received three doses total. Irinotecan was administered every 3-4 days starting on day 15 and mice received three doses total.
To assess the effects of REGN421 and irinotecan as single agents or in combination treatments, the changes in tumor size (volume) are measured, starting three days before the initial REGN421 treatment, and then on the day of each agent treatment (days 15, 19, 22) and thereafter every 3-4 days until tumors reach ˜600 mm^3 in size. In vivo tumor size is calculated using the formula (length×width^2)/2.

The test system of assay [1] is Hey1 gene expression in Colo205 human colorectal tumor cells. Description: Hey1 gene expression in Colo205 tumors in humanized Dll4 SCID mice (microarray). In kind it is in vivo. The procedure: The effect of anti-hDll4 antibody on differential gene expression in tumors was studied in humanized Dll4 SCID mice implanted with human Colo205 colorectal tumor cells. Briefly, Male and female humanized Dll4 SCID mice were subcutaneously implanted with 2×10^6 Colo205 cells per mouse. When the tumors reached ˜150 mm^3, mice (4 animals per group) were treated with a single dose of REGN421 at 0.5, 5 or 15 mg/kg, or of hFc control at 15 mg/kg. The tumors were excised at 5 hrs, 10 hrs, 24 hrs, 72 hrs and 7 days after the treatment and stored in RNA later stabilization reagent (Qiagen). Tumor RNA was purified using the RNeasy® Midi Kit (Qiagen). Tissue was homogenized in lysis buffer containing […] in a mixer mill, loaded onto the columns and unbound contaminants washed through. DNase I digestion was performed on the column and RNA was eluted in RNase-free water. Cyanine 3 (Cy3)-CTP was incorporated into amplified cRNA from 500 ng of total RNA using the Quick Amp™ RNA Amplification Kit (Agilent Technologies). Cy3-labeled cRNA from each sample was then hybridized to a custom array covering both the mouse and human transcriptome. The hybridization and wash of the arrays were performed according to the manufacture's protocol and arrays were scanned on an Agilent Microarray scanner. The data were extracted from scanned array images using the Agilent Feature Extraction Software 9.5. […]

Assay [2] concerns Hey-1 transcript (Dll4-notch signaling pathway). Description: Hey-1 transcript in Phase I patient samples (microarray). In kind it is in vivo, human. As to conditions: all samples, 0.25 and 0.5 mg/kg. As for the experimental part: The pharmacodynamic effect of REGN421 on the Dll4-notch signaling pathway has been analyzed using microarray technology on the patient serum samples collected prior to as well as 24 hours following REGN421 administration.

In the next assay the test system is TOV-112D cells. The assay can be described thus: TOV-112D ovarian xenograft (subcutaneous) tumor growth inhibition. In kind it is in vivo, human. The procedure:
Ovarian tumor xenograft cells were implanted into humanized Dll4 SCID mice or vendor SCID mice (i.e., SCID mice expressing native murine Dll4). After implantation, mice were treated with REGN421 (anti-human Dll4 antibody, binds to human Dll4), mDll4Ab1 (anti-murine Dll4 antibody, binds to murine Dll4), or a human Fc domain control protein. In one study, mice were treated with VEGF-Trap, mDll4Ab1 or VEGF-Trap plus mDll4Ab1. TOV-112D cells (5×10^6) were implanted subcutaneously into the right flank of humanized Dll4 (n=4) or vendor SCID mice (n=7). Treatment with REGN421 (2.5 mg/kg, 1×/week) or mDll4Ab1 (5 mg/kg, 1×/week) vs. hFc control was initiated one week after tumor cell implantation. Animals were treated for 2 to 3 weeks. A2780 cells (2×10^6) were implanted intraperitoneally into humanized Dll4 or vendor SCID mice (n=4-5). Treatment with REGN421 (2.5 mg/kg, 1×/week) or mDll4Ab1 (5 mg/kg, 1×/week) vs. hFc control was initiated one week after tumor cell implantation. For the A2780 combination study, simultaneous treatment with mDll4Ab1 (5 mg/kg, 1×/week) and VEGF-Trap (10 mg/kg, 2×/week) was initiated one week after tumor cell implantation. A VEGF-Trap single treatment arm was included in this study. Animals bearing A2780 tumors were treated for 4-5 weeks. SKOV-3 cells (5×10^6) in matrigel were implanted subcutaneously and tumor-bearing animals (n=10) were dosed with REGN421 (2.5 mg/kg) and mDll4Ab1 (5 mg/kg) once weekly. OVCAR-3 cells (1×10^7) were implanted subcutaneously into the right flank of vendor SCID mice (n=7). Treatment with mDll4Ab1 (5 mg/kg 1×/week) vs. hFc control was initiated 66 days after tumor cell implantation. Animals were treated for a total of 5 weeks. Tumor growth inhibition (TGI) was measured as detailed above.
For orientation: In xenograft studies the graft and the host belong to different species.

B1: REGN421 (antibody, V domains shown)
VH: QVQLVESGGGVVQPGRSLRLSCAASGFTFSSYGMHWVRQAPGKGLEWVSFLWYDGTNKNYVESVKGRFTISRDNSKNMLYLEMNSLRAEDTAVYYCARDHDFRSGYEGWFDPWGQGTLVTVSS
VL: EIVLTQSPATLSLSPGERATLSCRASQSVSSYLAWYQQKPGQAPRLLIYDASNRATGIPARFSGSGSGTDFTLTISSLEPEDFAVYYCQHRSNWPPTFGGGTKVEIK
In the case of B1, the “TGD” value in the assay on human HCT116 tumor cells turned out to be 9 days. Further, the “TGI(%) at Day 39” value in the assay with human HCT116 tumor cells amounted to 81.3%. The “Hey1 mRNA levels compared to control hFc-treated mice” value in assay [1] (single dose 0.5 mg/kg (lowest dose)) was “No significant decrease”; in assay [1] (single dose REGN421, starting at 10 hours, most significantly at 72 hours and 7 days post-treatment), “decreased”. Also, the “expression of the Hey-1 gene compared to pre-treatment samples” value in assay [2] is “reduced”. Further, the “% TGI” value came out at 86% in the assay with TOV-112D cells (Humanized Dll4 SCID mice, REGN421 2.5 mg/kg 1x/week) and 0% in the assay on TOV-112D cells (SCID mice (native murine Dll4), REGN421 2.5 mg/kg or mDll4Ab1 5 mg/kg 1x/week). Further, in the assay with TOV-112D cells (vendor SCID mice), the “anti-tumor activity (in words)” value is “did not exhibit any appreciable anti-tumor activity”.
